± gives the standard deviation of the averaged measurements.
tested on: Saccharomyces cerevisiae; experiment: protein stability index of tFT-peptide fusion (C-terminal peptide) (PSI (0-1 scale)); higher = more stable (slower turnover); conditions: genetic background: wild type; temperature: 30 C
Method: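 Multiplexed protein stability (MPS) profiling in S. cerevisiae. Random 12-aa peptides (tFT-X12 library) are fused to the C-terminus of a sfGFP-mCherry tandem fluorescent timer, after mCherry and a GGGS linker. Cells are FACS-sorted into 8 mCherry/sfGFP bins and deep-sequenced. The protein stability index (PSI) is the read-weighted bin average, scaled from 0 (unstable) to 1 (stable). Only peptides with >10 reads are reported; cells were grown at 30 °C in SC-His with glucose.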
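Further: PSI is a weighted mean of sequencing reads over stability bins, variants kept only with over 10 reads, mCherry proximal and sfGFP distal, peptide attached via GGGS linker.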

Compared with PDPPAPLPPHPV, RPLCRSFPPASL is higher in protein stability index: 0.669 ± 0.053 for the first, 0.788 ± 0.058 for the second.

First: CVVVSCVCPFVV
Second: KKKKIKKNKKQL
The protein stability index of the first is lower: 0.5739 ± 0.0036 for the first, 0.684 ± 0.01 for the second.

LCTYVMFACFFF and STCFPSIVRLGP are within error of each other in protein stability index: 0.641 ± 0.1 for the first, 0.612 ± 0.05 for the second.

GGTRCQYKNLFG and KEKRLKATTQYE are within error of each other in protein stability index: 0.683 ± 0.029 for the first, 0.699 ± 0.015 for the second.

Going from LGGGGWGGACGE to RSPPAVSLVTIP, the protein stability index rises from 0.66 ± 0.02 to 0.6911 ± 0.0052.

LNTVRKSKDKAI and KKKKKKEKGDST are within error of each other in protein stability index: 0.706 ± 0.19 for the first, 0.716 ± 0.076 for the second.

VGGLGRGTGSGP and PRPKPSAIPILT are within error of each other in protein stability index: 0.683 ± 0.096 for the first, 0.597 ± 0.015 for the second.

YFTARLLFFGYI and AGLEPGTAALVD are within error of each other in protein stability index: 0.725 ± 0.1 for the first, 0.641 ± 0.094 for the second.

GGRGREGRPPGP and PPHPPLPARPSP are within error of each other in protein stability index: 0.641 ± 0.034 for the first, 0.681 ± 0.041 for the second.

KKQKSKSAREAS and NLRFTTSCNGPL are within error of each other in protein stability index: 0.658 ± 0.024 for the first, 0.649 ± 0.018 for the second.

KGKFTRGGMAGT and KKETRRTNPEHK are within error of each other in protein stability index: 0.668 ± 0.049 for the first, 0.765 ± 0.11 for the second.

SSCAWGGGLEVG and FNGAISESGLPT are within error of each other in protein stability index: 0.683 ± 0.053 for the first, 0.664 ± 0.053 for the second.

RNVKETSNRREL and VGFGTGGAVGVE are within error of each other in protein stability index: 0.627 ± 0.11 for the first, 0.687 ± 0.041 for the second.

WIPSYMRFCALT and PPPHPPLPPPTP are within error of each other in protein stability index: 0.788 ± 0.098 for the first, 0.678 ± 0.039 for the second.

YVTITLGLASPT and LTHLADVRSVLS are within error of each other in protein stability index: 0.666 ± 0.026 for the first, 0.708 ± 0.043 for the second.

PPQGMTGGRGDR and QVDITASPDRTT are within error of each other in protein stability index: 0.697 ± 0.077 for the first, 0.745 ± 0.056 for the second.

Compared with EIDAKNRDEETN, GMWVGGRGVVGV is lower in protein stability index: 0.694 ± 0.019 for the first, 0.627 ± 0.0076 for the second.

SPSLSFPGIPLF and GGGPWGRVGRGG are within error of each other in protein stability index: 0.673 ± 0.052 for the first, 0.679 ± 0.037 for the second.

Going from GWDQSGVVFVCG to VGLFGLCRVFGM, the protein stability index rises from 0.605 ± 0.017 to 0.646 ± 0.023.

IMGGGGEGGINC and AIYKGVIVGKKS are within error of each other in protein stability index: 0.698 ± 0.019 for the first, 0.646 ± 0.043 for the second.

Going from WSLSSHCMLMVE to PFSSPDLLRCPH, the protein stability index rises from 0.5394 ± 0.0051 to 0.752 ± 0.024.

First: GFGSEGQDMVGL
Second: LIAVASSGWKQS
The protein stability index of the first is lower: 0.6658 ± 0.0027 for the first, 0.7145 ± 0.0023 for the second.

First: KKEKKKTKANKT
Second: YPVLFLRSAPCK
The protein stability index of the first is higher: 0.679 ± 0.031 for the first, 0.584 ± 0.031 for the second.

Going from VSRYRQWGSWER to CTLSFRVAFFSL, the protein stability index falls from 0.649 ± 0.013 to 0.5848 ± 0.00071.

RRATCYGLGPTM and VCLATPPSTVTP are within error of each other in protein stability index: 0.681 ± 0.013 for the first, 0.619 ± 0.065 for the second.

First: EARMGGGRCGTG
Second: RVLPASRFSFLF
The protein stability index of the first is lower: 0.684 ± 0.008 for the first, 0.743 ± 0.036 for the second.

PPLLTPSVPFSS and LLTGKTVPKDST are within error of each other in protein stability index: 0.715 ± 0.033 for the first, 0.705 ± 0.016 for the second.

LDIGVADAQRML and ASRWGYSATTVG are within error of each other in protein stability index: 0.701 ± 0.14 for the first, 0.697 ± 0.026 for the second.

DRLGFGPVSRID and PRPPLPSTPEAA are within error of each other in protein stability index: 0.665 ± 0.064 for the first, 0.612 ± 0.024 for the second.

THYSTQPKSTKC and YCNLSFKINREW are within error of each other in protein stability index: 0.689 ± 0.027 for the first, 0.696 ± 0.12 for the second.

Compared with LSHSSPLFSPLV, AWGFHDAFGLGC is lower in protein stability index: 0.72 ± 0.0077 for the first, 0.605 ± 0.032 for the second.

QQKKPKKEKTTE and VGGTSWGIEKSS are within error of each other in protein stability index: 0.6744 ± 0.0036 for the first, 0.649 ± 0.052 for the second.

Going from PPHNTPLAPSQY to LPLPPPPPCCSF, the protein stability index rises from 0.659 ± 0.0094 to 0.701 ± 0.015.

Going from FRLAPPSVYDFV to RRRSGGVIWNRV, the protein stability index falls from 0.7008 ± 0.002 to 0.669 ± 0.009.

Going from FLVCFPFALFGA to LTHLLTSHTNII, the protein stability index rises from 0.495 ± 0.052 to 0.746 ± 0.081.

TPFLRGTDKTTP and GHAITSALITHR are within error of each other in protein stability index: 0.662 ± 0.068 for the first, 0.652 ± 0.024 for the second.

With PDSLHTLRPPPP the protein stability index was 0.653 ± 0.022.
